Source: US6534281

Columns and labels:
human C-peptide (human) [1] = assay: sandwich immunoassay, one-step; 9101 on particles, labeled antibody 9103
human C-peptide (human) [2] = assay: sandwich immunoassay, two-step; 9101 on particles, labeled antibody 9103
human C-peptide (human) [3] = assay: sandwich immunoassay, one-step; 9101 on particles, labeled antibody CPT-3F-11
human C-peptide (human) [4] = assay: sandwich immunoassay, two-step; 9101 on particles, labeled antibody CPT-3F-11
human C-peptide (human) [5] = assay: ELISA on immobilized C-peptide; labeled antibody 10 ug/ml, free C-peptide 0 ug/ml
human C-peptide (human) [6] = assay: ELISA on immobilized C-peptide; labeled antibody 10 ug/ml, free C-peptide 10 ug/ml
human C-peptide (human) [7] = assay: ELISA on immobilized C-peptide; labeled antibody 0.1 ug/ml, free C-peptide 0 ug/ml
human C-peptide (human) [8] = assay: ELISA on immobilized C-peptide; labeled antibody 1.0 ug/ml, free C-peptide 0 ug/ml
human C-peptide (human) [9] = assay: ELISA on immobilized C-peptide; labeled antibody 0.1 ug/ml, free C-peptide 10 ug/ml
human C-peptide (human) [10] = assay: ELISA on immobilized C-peptide; labeled antibody 1.0 ug/ml, free C-peptide 10 ug/ml
human C-peptide (human) [11] = assay: ELISA on immobilized C-peptide; labeled antibody 10 ug/ml, free C-peptide 0.1 ug/ml
human C-peptide (human) [12] = assay: ELISA on immobilized C-peptide; labeled antibody 10 ug/ml, free C-peptide 1.0 ug/ml
human C-peptide (human) [13] = assay: ELISA on immobilized C-peptide; labeled antibody 0.1 ug/ml, free C-peptide 0.1 ug/ml
human C-peptide (human) [14] = assay: ELISA on immobilized C-peptide; labeled antibody 0.1 ug/ml, free C-peptide 1.0 ug/ml
human C-peptide (human) [15] = assay: ELISA on immobilized C-peptide; labeled antibody 1.0 ug/ml, free C-peptide 0.1 ug/ml
human C-peptide (human) [16] = assay: ELISA on immobilized C-peptide; labeled antibody 1.0 ug/ml, free C-peptide 1.0 ug/ml
human C-peptide (human) [17] = assay: ELISA on immobilized C-peptide; labeled antibody 0.0 ug/ml (blank), free C-peptide 0 ug/ml
human C-peptide (human) [18] = assay: ELISA on immobilized C-peptide; labeled antibody 0.0 ug/ml (blank), free C-peptide 10 ug/ml
human C-peptide (human) [19] = assay: ELISA on immobilized C-peptide; labeled antibody 0.0 ug/ml (blank), free C-peptide 0.1 ug/ml
human C-peptide (human) [20] = assay: ELISA on immobilized C-peptide; labeled antibody 0.0 ug/ml (blank), free C-peptide 1.0 ug/ml
human C-peptide (human) [21] = assay: ELISA on immobilized C-peptide; labeled antibody 10 ug/ml, free C-peptide 0 ug/ml (reference)
human C-peptide (human) [22] = assay: ELISA on immobilized C-peptide; labeled antibody 0.1 ug/ml, free C-peptide 0 ug/ml (reference)
human C-peptide (human) [23] = assay: ELISA on immobilized C-peptide; labeled antibody 1.0 ug/ml, free C-peptide 0 ug/ml (reference)
human proinsulin (human) [24] = biological target: human proinsulin (human) (UniProt P01308); assay: sandwich immunoassay, one-step, against C-peptide calibration; proinsulin 50 ng/ml; 9101 on particles, labeled antibody 9103
Sequence of UniProt P01308 (P01308 25-110): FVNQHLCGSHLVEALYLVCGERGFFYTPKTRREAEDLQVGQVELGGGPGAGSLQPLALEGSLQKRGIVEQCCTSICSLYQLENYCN

human proinsulin (human) [25] = biological target: human proinsulin (human) (UniProt P01308); assay: sandwich immunoassay, two-step, against C-peptide calibration; proinsulin 50 ng/ml; 9101 on particles, labeled antibody 9103
human proinsulin (human) [26] = biological target: human proinsulin (human) (UniProt P01308); assay: sandwich immunoassay, one-step, against C-peptide calibration; proinsulin 200 ng/ml; 9101 on particles, labeled antibody 9103
human proinsulin (human) [27] = biological target: human proinsulin (human) (UniProt P01308); assay: sandwich immunoassay, one-step, against C-peptide calibration; proinsulin 400 ng/ml; 9101 on particles, labeled antibody 9103
human proinsulin (human) [28] = biological target: human proinsulin (human) (UniProt P01308); assay: sandwich immunoassay, two-step, against C-peptide calibration; proinsulin 200 ng/ml; 9101 on particles, labeled antibody 9103
human proinsulin (human) [29] = biological target: human proinsulin (human) (UniProt P01308); assay: sandwich immunoassay, two-step, against C-peptide calibration; proinsulin 400 ng/ml; 9101 on particles, labeled antibody 9103
human proinsulin (human) [30] = biological target: human proinsulin (human) (UniProt P01308); assay: sandwich immunoassay, one-step, against C-peptide calibration; proinsulin 50 ng/ml; 9101 on particles, labeled antibody CPT-3-F11
human proinsulin (human) [31] = biological target: human proinsulin (human) (UniProt P01308); assay: sandwich immunoassay, two-step, against C-peptide calibration; proinsulin 50 ng/ml; 9101 on particles, labeled antibody CPT-3-F11
human proinsulin (human) [32] = biological target: human proinsulin (human) (UniProt P01308); assay: sandwich immunoassay, one-step, against C-peptide calibration; proinsulin 200 ng/ml; 9101 on particles, labeled antibody CPT-3-F11
human proinsulin (human) [33] = biological target: human proinsulin (human) (UniProt P01308); assay: sandwich immunoassay, one-step, against C-peptide calibration; proinsulin 400 ng/ml; 9101 on particles, labeled antibody CPT-3-F11
human proinsulin (human) [34] = biological target: human proinsulin (human) (UniProt P01308); assay: sandwich immunoassay, two-step, against C-peptide calibration; proinsulin 200 ng/ml; 9101 on particles, labeled antibody CPT-3-F11
human proinsulin (human) [35] = biological target: human proinsulin (human) (UniProt P01308); assay: sandwich immunoassay, two-step, against C-peptide calibration; proinsulin 400 ng/ml; 9101 on particles, labeled antibody CPT-3-F11
[36] = biological target: modified C-peptide (human C-peptide having Arg-Arg bound to its N-terminal and Lys-Arg bound to its C-terminal) (human); assay: sandwich immunoassay, one-step, against C-peptide calibration; modified C-peptide 5 ng/ml; 9101 on particles, labeled antibody 9103
Sequence of modified C-peptide (human C-peptide having Arg-Arg bound to its N-terminal and Lys-Arg bound to its C-terminal) (human) (peptide, as listed by the source): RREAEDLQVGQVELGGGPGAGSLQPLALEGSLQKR

[37] = biological target: modified C-peptide (human C-peptide having Arg-Arg bound to its N-terminal and Lys-Arg bound to its C-terminal) (human); assay: sandwich immunoassay, two-step, against C-peptide calibration; modified C-peptide 5 ng/ml; 9101 on particles, labeled antibody 9103
[38] = biological target: modified C-peptide (human C-peptide having Arg-Arg bound to its N-terminal and Lys-Arg bound to its C-terminal) (human); assay: sandwich immunoassay, one-step, against C-peptide calibration; modified C-peptide 5 ng/ml; 9101 on particles, labeled antibody CPT-3F-11
[39] = biological target: modified C-peptide (human C-peptide having Arg-Arg bound to its N-terminal and Lys-Arg bound to its C-terminal) (human); assay: sandwich immunoassay, two-step, against C-peptide calibration; modified C-peptide 5 ng/ml; 9101 on particles, labeled antibody CPT-3F-11

Sequence of human C-peptide (human) (peptide, as listed by the source): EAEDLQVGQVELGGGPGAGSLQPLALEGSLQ

Substance: anti-human C-peptide monoclonal antibody 9101 (Medix Biochemica)
- 2S/N value (human C-peptide (human) [1]): 0.222 ng/mL
- 2S/N value (human C-peptide (human) [2]): 0.11 ng/mL
- 2S/N value (human C-peptide (human) [3]): 0.008 ng/mL
- 2S/N value (human C-peptide (human) [4]): 0.009 ng/mL
- Absorbance (absorbance at 405 nm) (human C-peptide (human) [5]): 1.98
- Absorbance (absorbance at 405 nm) (human C-peptide (human) [6]): 0.001
- Binding Ratio (human C-peptide (human) [6]): 0.1%
- Absorbance (absorbance at 405 nm) (human C-peptide (human) [7]): 1.26
- Absorbance (absorbance at 405 nm) (human C-peptide (human) [8]): 1.69
- Absorbance (absorbance at 405 nm) (human C-peptide (human) [9]): 0
- Binding Ratio (human C-peptide (human) [9]): 0%
- Absorbance (absorbance at 405 nm) (human C-peptide (human) [10]): 0.001
- Binding Ratio (human C-peptide (human) [10]): 0%
- Absorbance (absorbance at 405 nm) (human C-peptide (human) [11]): 0.331
- Binding Ratio (human C-peptide (human) [11]): 17.1%
- Absorbance (absorbance at 405 nm) (human C-peptide (human) [12]): 0.051
- Binding Ratio (human C-peptide (human) [12]): 2.6%
- Absorbance (absorbance at 405 nm) (human C-peptide (human) [13]): 0.141
- Binding Ratio (human C-peptide (human) [13]): 11.1%
- Absorbance (absorbance at 405 nm) (human C-peptide (human) [14]): 0.013
- Binding Ratio (human C-peptide (human) [14]): 1%
- Absorbance (absorbance at 405 nm) (human C-peptide (human) [15]): 0.298
- Binding Ratio (human C-peptide (human) [15]): 17.6%
- Absorbance (absorbance at 405 nm) (human C-peptide (human) [16]): 0.042
- Binding Ratio (human C-peptide (human) [16]): 2.5%
- Absorbance (absorbance at 405 nm) (human C-peptide (human) [17]): 0
- Binding Ratio (human C-peptide (human) [17]): 0%
- Absorbance (absorbance at 405 nm) (human C-peptide (human) [18]): 0
- Binding Ratio (human C-peptide (human) [18]): 0%
- Absorbance (absorbance at 405 nm) (human C-peptide (human) [19]): 0
- Binding Ratio (human C-peptide (human) [19]): 0%
- Absorbance (absorbance at 405 nm) (human C-peptide (human) [20]): 0
- Binding Ratio (human C-peptide (human) [20]): 0%
- Binding Ratio (human C-peptide (human) [21]): 100%
- Binding Ratio (human C-peptide (human) [22]): 100%
- Binding Ratio (human C-peptide (human) [23]): 100%
- Cross-reactivity (%) to Human Proinsulin (human proinsulin (human) [24]): 19.7%
- Cross-reactivity (%) to Human Proinsulin (human proinsulin (human) [25]): 12.8%
- Cross-reactivity (%) to Human Proinsulin (human proinsulin (human) [26]): 18.1%
- Cross-reactivity (%) to Human Proinsulin (human proinsulin (human) [27]): > 15%
- Cross-reactivity (%) to Human Proinsulin (human proinsulin (human) [28]): 9.8%
- Cross-reactivity (%) to Human Proinsulin (human proinsulin (human) [29]): 8.4%
- Cross-reactivity (%) to Human Proinsulin (human proinsulin (human) [30]): 19.6%
- Cross-reactivity (%) to Human Proinsulin (human proinsulin (human) [31]): 10.7%
- Cross-reactivity (%) to Human Proinsulin (human proinsulin (human) [32]): 17.8%
- Cross-reactivity (%) to Human Proinsulin (human proinsulin (human) [33]): 11.7%
- Cross-reactivity (%) to Human Proinsulin (human proinsulin (human) [34]): 11.8%
- Cross-reactivity (%) to Human Proinsulin (human proinsulin (human) [35]): 12.1%
- Cross-reactivity (%) to Modified C-peptide [36]: < 0.5%
- Cross-reactivity (%) to Modified C-peptide [37]: < 0.7%
- Cross-reactivity (%) to Modified C-peptide [38]: 9.3%
- Cross-reactivity (%) to Modified C-peptide [39]: 1.7%
